Data as given in US20180222985A1, “ANTIBODIES AGAINST HUMAN CSF-1R FOR USE IN INDUCING LYMPHOCYTOSIS IN LYMPHOMAS OR LEUKEMIAS” (Hoffmann-La Roche Inc., priority 2015, published 2018).

Columns and labels:
[1] = biological target: human mutant CSF-1R L301S Y969F (human) (UniProt P07333); test: cell-based or functional assay
[2] = biological target: human wildtype CSF-1R (wt CSF-1R) (human, UniProt P07333 20-972); test: cell-based or functional assay
[3] = tested on: MEC1 cells; test: CLL xeno-transplantation system: MEC1 cells i.v. in Rag2−/−γc−/− mice; format: in vivo
Description: FIG. 4 Anti-leukemic effect of anti-CSF1R moAb in the CLL xeno-transplantation system. • (A-B-C-D-E) i.v. MEC1 challenged (day 0) Rag2^−/−γc^−/− mice were treated i.v. (day +11, +25) with 30 mg/Kg of anti-CSF1R moAb (n=3, white circles) or left untreated (n=4, black circles) and killed at day 27 (A). The mean value of the absolute number of CD11b+ F4/80+ cells gated on CD45+ in SP (B) and BM (C) is shown in graphs. The mean value of the absolute number of human CD19+ cells in the BM is shown in graph (D). The mean value of the absolute number of human CD19+ cells and of Ann-PI+ cells gated on hCD19+ cells in SP is shown in graphs (E). Data are from one representative experiment of three. Statistical analysis: *p<0.05, **p<0.01, Student's t test. (F-G-H-I) i.v. MEC1 challenged (day 0) Rag2^−/−γc^−/− mice were treated i.v. (day +11, +25) with 30 mg/Kg of anti-CSF1R moAb) (n=7, white circles) or left untreated (n=7, black circles) and killed at days 27 and 29, 48 h and 96 h after the last moAb injection (F). The mean value of the absolute number of human CD19+ cells and of Ann-PI+ cells gated on hCD19+ cells in SP at days 27, 29 is shown in graphs (G). […]
FIG. 5 Anti-leukemic effect and survival impact of anti-CSF1R moAb in the CLL xeno-transplantation system. • (A-B-C) i.v. MEC1 challenged (day 0) Rag2^−/−γc^−/− mice were treated i.v. (day +11, +25) with 30 mg/Kg of anti-CSF1R moAb (n=3, white circles) or left untreated (n=4, black circles) and killed at day 27 (A). […] Statistically significant differences were calculated using the Student t test. **p<0.01, ***p<0.001. (D-E) i.v. MEC1 challenged (day 0) Rag2^−/−γc^−/− mice were left untreated (n=10, black circles) or treated with: 30 mg/Kg i.v. of anti-CSF1R moAb (n=11, white circles; day +11, +25); or 30 mg/Kg i.p. of anti-CD20 moAb GA101 (n=10, blue circles; day +11, +25); or 30 mg/Kg i.p. of anti-CD20 moAb GA101 (day +11, +25)+30 mg/Kg i.v. of anti-CSF1R moAb (day +18, +32) (n=10, violet circles) and monitored for survival (D). […]

[4] = tested on: PBMCs from CLL patients; test: In vitro cultures and cell-depletion assays from CLL samples (PBMCs); format: cell-based, human; settings: etanercept 10 μg/ml, 24 h; 3 out of 4 samples
Description: Statistically significant differences were calculated using the Student t test. *p<0.05 • (C) hCD19+ CDS+ depletion after 24 h treatment (n=3) with 100 μM, 500 μM, 1000 μM of clodrolip, with (black bar) or without (white bar) etanercept (10 n/ml) was calculated by the following formula: 100−% remaining cells, where % remaining cells=(Absolute number in treated samples/Absolute number in untreated samples)×100. (*p<0.05), Student's t test. • (D) hCD19+ CDS+ depletion after 24 h treatment (n=3) with clodrolip 1000 μM, with (black bar) or without (white bar) blocking anti-TRAIL-R2 moAb (1 μg/ml) was calculated by the following formula: 100−% remaining cells, where % remaining cells=(Absolute number in treated samples/Absolute number in untreated samples)×100.
Fresh PBMCs from untreated CLL patients were seeded, as triplicates, at 3×10^6 cells/ml in culture medium and treated with clodrolip or PBS liposomes (100, 500, 1000 μM) for 30 min and 24 h, in presence or absence of etanercept (10 μg/ml), a TNF-α antagonist from Pfizer or anti-TRAIL-R2 (human, 1 μg/ml) moAb (HS201) from Adipogen AG. […] The specific percentage of remaining leukemic CD19+CD5+ or CD14+ cells in treated samples was calculated as (absolute number in treated samples/absolute number in control samples)×100. […]

With “Anti CSF-1R SC 2-4A5 (Santa Cruz Biotechnology, US) (antibody)” the Mutant CSF-1R IC30 (30 percent inhibition of cell viability, CellTiterGlo, 3D spheroid culture) [1] was 2.56 µg/mL and the wtCSF-1R IC30 (30 percent inhibition of cell viability, CellTiterGlo, 3D spheroid culture) [2] was 16.6 µg/mL.
In the case of “GA101: glycoengineered humanized B-Ly1 antibody BHH6-B-KV1 GE, type II anti-human CD20”, the “survival of mice, p vs untreated control (Log-Rank test)” value ([3]; 30 mg/Kg each, single agents days +11, +25, combination GA101 days +11, +25 + anti-CSF1R days +18, +32) is reported as 0.006.
For etanercept, the “effect on anti-leukemic effect of CSF1R moAb in the SP” value ([3]; etanercept 10 mg/Kg i.p. from day +10, CSF1R moAb 30 mg/Kg i.v. days +11, +25, day 29) was “abrogated”, the “effect on clodrolip-induced leukemic cell depletion in the BM” value ([3]; etanercept 10 mg/Kg i.p. from day +10, clodrolip 60 μl i.v. days +11, +25, day 26) was “abated” and the “effect on leukemic cell depletion induced by clodrolip (TNF blocked)” value [4] was “reduced”.
With “goat polyclonal anti-CSF-1R antibody ab10676 (abcam)” the Mutant CSF-1R IC30 (30 percent inhibition of cell viability, CellTiterGlo, 3D spheroid culture) [1] was greater than 20 µg/mL, the Mutant CSF-1R: inhibition of cell viability at 20 µg/ml [1] was 0% and the wtCSF-1R IC30 (30 percent inhibition of cell viability, CellTiterGlo, 3D spheroid culture) [2] was 14.2 µg/mL.
